US20150203555A1

T1: Vascular endothelial growth factor (VEGF165), P15692
T1 chain: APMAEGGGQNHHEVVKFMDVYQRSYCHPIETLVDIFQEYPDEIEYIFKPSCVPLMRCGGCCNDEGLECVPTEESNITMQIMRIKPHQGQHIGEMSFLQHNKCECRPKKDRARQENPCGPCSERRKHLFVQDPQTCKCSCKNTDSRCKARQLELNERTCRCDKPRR


Molecular target: T1, Vascular endothelial growth factor …
Experiment: competition FP, tracer BODIPY-v114*ΔNT

Ki	Binder
> 100 µM	VDNKFNKEMHNAYAIEIALLPNLNDQQFHAFIWSLIDD (modifications not checked) [Z-VEGF (1-38)]
> 100 µM	VDNKFNKEQHNARAIEAALDPNLNDQQFHAKIWSIIDD (modifications not checked) [α-VEGF-1]
